Target: T1, GST-fusion HMGB1 protein (Wister rat HMGB1, full length, expressed from pGEX-3X) (rat (Wister), UniProt P63159 2-215)
T1 construct: mature; GST served as the negative control protein in screening; also called HMGB1 solid-phase plate; not shown: glutathione S-transferase (GST) tag of the pGEX-3X vector
T1 sequence (looked up): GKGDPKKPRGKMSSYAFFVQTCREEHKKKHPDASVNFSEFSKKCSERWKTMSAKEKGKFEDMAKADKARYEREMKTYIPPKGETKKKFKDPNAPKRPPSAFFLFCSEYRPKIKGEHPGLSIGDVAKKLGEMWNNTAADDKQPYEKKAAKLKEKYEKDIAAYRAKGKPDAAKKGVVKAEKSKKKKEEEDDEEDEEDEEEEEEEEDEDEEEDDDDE
Assay: ELISA on GST-fusion HMGB1 and SPR (FIGS. 1A and 1B)
Experimental: Then, to select anti-HMGB1 monoclonal antibodies, the ELISA method was carried out as described below. First, part of the culture solution after 2 weeks was sampled and added in […] to a microplate in which 250 ng/well of the HMGB1 protein or the negative control protein (GST) was immobilized. Subsequently, reaction was carried out at room temperature for 1 hour, followed by washing with PBS three times. A secondary antibody (HRP-labeled anti-mouse IgG, manufactured by MEDICAL & BIOLOGICAL LABORATORIES CO., LTD., code number 330) was diluted in accordance with the package insert and added in 50 μL/well, which was reacted for one hour at room temperature, followed by washing with PBS three times after the reaction. Thereafter, a TMB reagent (MOSS, Inc., Chicago, Ill., USA, USA) was added in 50 μL/well, followed by enzyme chromogenic reaction for 15 minutes. Subsequently, after the enzyme reaction was stopped with 1.5 N phosphoric acid, the absorbance was measured with a plate reader with 450 nm (reference 630 nm) to select clones that reacts specifically with the HMGB1 solid-phase plate, establishing anti-HMGB1 monoclonal antibodies.

B1: anti-HMGB1 monoclonal antibody (2C8C) (antibody, V domains shown)
VH: QVQLQQSGPELVKPGASVKLSCKASGYTFTDYTIHWVKQSPGQGLEWIGWIYPGSGNTKYNDKFKGKATMTADKSSSTAYMQLSSLTSEDSAVYFCARGFAYWGQGTLVTVSA
VL: DIVLTQSPATLSVTPGDSVSLSCRASQSISNNLHWYQQKSHESPRLLIKYASQSISGIPSRFSGSGSGTDFTLSINSVETEDFGMYFCQQTNSWPLTFGAGTKLELK
notes: also called 2C8C antibody; clone 2C8C
  binding result: binds

Source: patent US20190211092A1 (NATIONAL UNIVERSITY CORPORATION TOKYO MEDICAL AND DENTAL …, published 2019)
